# In PMC4117778:
# Target: human DNA polymerase beta (polβ) (Homo sapiens, UniProt P06746 1-335)
# Experiment: X-ray crystallography; gapped binary complex, no incoming nucleotide; open conformation; 2.4 Å; Crystallization conditions not in material; kinetics (turnover only, not listed): 50 mM Tris-HCl pH 7.5, 5 mM MgCl2, 100 mM KCl, 80 nM DNA, 37°C
binder,measurement,value
"single-nucleotide gapped DNA with templating Fm7dG (crystal) (dsDNA, template G6 = 2'-fluoro-N7-methyl-2'-deoxyguanosine (Fm7dG); 5'-phosphate on downstream primer GTCGG) DNA 1: CCGACGTCGCATCAGC DNA 2: GCTGATGCGA DNA 3: GTCGG",binding result,binds
